These results are taken from publication PMC4922627.

By stoichiometry N is commonly meant the number of molecules, sites or subunits per partner or assembly.

The target of experiment [1] is TEV-cleaved ICP35 (White spot syndrome virus). In words: SEC; HiLoad 16/600 Superdex 200; 20 mM Tris-HCl pH 8.0, 200 mM NaCl, 5 mM MgSO4; peak fractions checked by SDS-PAGE. A general note: Size exclusion chromatography separates by hydrodynamic size, large species first.
Experiment [2] has the same target. In words: SDS-PAGE without boiling; purified protein loaded on 12% SDS-PAGE with and without boiling, Coomassie stain and Western blot; TEV-cleaved ICP35 concentrated to 10 mg/ml to induce oligomerization. For orientation: In western blotting, separated proteins are transferred to a membrane and probed.

On to TEV-cleaved ICP35 (domain or fragment), for which the stoichiometry N in experiment [1] and in experiment [2] was 2 throughout.
